Numbering of substitutions follows the chain as printed.

The target of experiment [1] is T1, recombinant human CD27 (soluble, captured on anti-FLAG coated ELISA plates) (human, UniProt P26842 20-191).
T1 construct: also called rCD27; sCD27
T1 sequence: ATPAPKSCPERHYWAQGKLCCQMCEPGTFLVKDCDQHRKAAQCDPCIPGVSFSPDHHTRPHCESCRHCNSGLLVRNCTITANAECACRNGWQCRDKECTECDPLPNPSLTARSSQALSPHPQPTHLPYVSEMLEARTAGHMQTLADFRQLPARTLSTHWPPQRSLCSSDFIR
Kind of experiment: ELISA; CD27 captured on plates coated with anti-FLAG antibody, detection with goat anti-human IgG Fc-HRP; panel title 'Recombinant CD27'. On the procedure: In this example, the binding activity of the CD27 agonists prepared as described in Example 2 was examined. Binding to recombinant CD27 (rCD27) was tested by standard ELISA. Human CD27 was captured on ELISA plates coated with anti-FLAG antibody, followed by incubation with CD27 agonists. A goat anti-human IgG Fc-HRP (horseradish peroxidase) antibody and substrate Super Blue TMB were used for detection.
The CD27 agonists tested were 1F5mAb-1F5sFv (sFv), 1F5mAb-2C2sFv (sFv) and 1F5mAb-CD70. The full-length, unconjugated IgG form of the anti-human CD27 monoclonal antibodies 1F5 and 2C2 were used as positive controls. Binding to a mutant form of soluble CD27, in which the arginine at position 87 was substituted with alanine (R87A), which is within the 1F5 binding site, was also tested.

Experiment [2] deals with soluble recombinant human CD27 with R87A substitution (human) (UniProt P26842). Kind of experiment: ELISA; mutated (R87A) CD27 captured on plates coated with anti-FLAG antibody, detection with goat anti-human IgG Fc-HRP; panel title 'mutated CD27'.

B1: human anti-human CD27 monoclonal antibody 2C2 (full-length, unconjugated IgG) (antibody, V domains shown)
VH: QVQLVESGGGVVQPGRSLRLSCAASGFTFSSYDIHWVRQAPGKGLEWVAVIWNDGSNKYYADSVKGRFTISRDNSTNSLFLQMNSLRAEDTAVYYCVGGTADLEHWDQGTLVTVSS
VL: DIQMTQSPSSLSASVGDRVTITCRASQGISSWLAWYQQKPEKAPKSLIYAASSLQSGVPSRFSGSGSGTDFTLTISSLQPEDFATYYCQQYNSYPLTFGGGTKVEIK
notes: Tested as full-length unconjugated IgG; also called 2C2 mAb
Consider B1, for which the binding result in experiment [1] is “binds”. In addition, in experiment [2], the EC50 (read off the curve) is 0.02 µg/mL.

B2: human anti-human CD27 monoclonal antibody 1F5 (full-length, unconjugated IgG) (antibody, V domains shown)
VH: QVQLVESGGGVVQPGRSLRLSCAASGFTFSSYDMHWVRQAPGKGLEWVAVIWYDGSNKYYADSVKGRFTISRDNSKNTLYLQMNSLRAEDTAVYYCARGSGNWGFFDYWGQGTLVTVSS
VL: B1 VL with S31R, S93T, L96R, G100Q
notes: also called 1F5 mAb; anti-CD27 antibody (1F5)
For B2, in experiment [1], the binding result is “binds”.
